Target: T1, recombinant his-PGC-1α (mouse, UniProt O70343 1-797, labeled with red-tris-NTA 2nd generation His-tag labeling kit)
T1 sequence (looked up): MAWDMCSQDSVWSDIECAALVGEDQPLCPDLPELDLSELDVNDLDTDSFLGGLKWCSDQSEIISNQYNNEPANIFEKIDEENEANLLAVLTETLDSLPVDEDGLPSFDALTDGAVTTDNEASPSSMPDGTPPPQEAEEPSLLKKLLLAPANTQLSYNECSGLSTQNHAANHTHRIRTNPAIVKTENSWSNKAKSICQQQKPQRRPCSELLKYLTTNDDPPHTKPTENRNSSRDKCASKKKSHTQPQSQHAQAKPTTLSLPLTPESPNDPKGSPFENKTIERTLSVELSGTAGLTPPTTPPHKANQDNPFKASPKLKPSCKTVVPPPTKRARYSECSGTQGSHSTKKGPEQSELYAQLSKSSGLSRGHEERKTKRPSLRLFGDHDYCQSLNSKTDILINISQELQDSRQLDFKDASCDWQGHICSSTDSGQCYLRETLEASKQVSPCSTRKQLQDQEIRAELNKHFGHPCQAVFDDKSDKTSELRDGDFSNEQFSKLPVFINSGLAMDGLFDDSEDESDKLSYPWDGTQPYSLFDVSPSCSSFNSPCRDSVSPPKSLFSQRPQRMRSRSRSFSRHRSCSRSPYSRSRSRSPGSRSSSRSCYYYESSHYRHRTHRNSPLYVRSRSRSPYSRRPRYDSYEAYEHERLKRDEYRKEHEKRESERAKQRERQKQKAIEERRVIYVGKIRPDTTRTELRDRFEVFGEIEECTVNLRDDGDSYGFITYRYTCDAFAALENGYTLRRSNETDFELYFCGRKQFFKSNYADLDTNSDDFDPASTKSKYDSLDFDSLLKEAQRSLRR
Assay: MST

- Kd: 1730 nM
B1: purified KMT5C protein (his tag cleaved) (enzyme)
chain: not shown

Source: article PMC11811016 (Nature Communications, 2025)
